The results in this text go back to the DeepSol protein solubility set.

The nature of this series: soluble on expression in E. coli; label from the status in PepcDB or PDB records.
Turning to “MSVGKPLPHDSARAHVTGQARYLDDLPCPANTLHLAFGLSTEASAAITGLDLEPVRESPGVIAVFTAADLPHDNDASPAPSPEPVLATGEVHFVGQPIFLVAATSHRAARIAARKARITYAPRPAILTLDQALAADSRFEGGPVIWARGDVETALAGAAHLAEGCFEIGGQEHFYLEGQAALALPAEGGVVIHCSSQHPSEIQHKVAHALGLAFHDVRVEMRRMGGGFGGKESQGNHLAIACAVAARATGRPCKMRYDRDDDMVITGKRHDFRIRYRIGADASGKLLGADFVHLARCGWSADLSLPVCDRAMLHADGSYFVPALRIESHRLRTNTQSNTAFRGFGGPQGALGMERAIEHLARGMGRDPAELRALNFYDPPERGGLSAPPSPPEPIATKKTQTTHYGQEVADCVLGELVTRLQKSANFTTRRAEIAAWNSTNRTLARGIALSPVKFGISFTLTHLNQAGALVQIYTDGSVALNHGGTEMGQGLHAKMVQVAAAVLGIDPVQVRITATDTSKVPNTSATAASSGADMNGMAVKDACETLRGRLAGFVAAREGCAARDVIFDAGQVQASGKSWRFAEIVAAAYMARISLSATGFYATPKLSWDRLRGQGRPFLYFAYGAAITEVVIDRLTGENRILRTDILHDAGASLNPALDIGQIEGAYVQGAGWLTTEELVWDHCGRLMTHAPSTYKIPAFSDRPRIFNVALWDQPNREETIFRSKAVGEPPFLLGISAFLALHDACAACGPHWPDLQAPATPEAVLAAVRRAEGRA”, the “soluble on expression in E. coli” value is reported as “soluble”. “MSVNMDELRHQVMINQFVLAAGCAADQAKQLLQAAHWQFETALSTFFQETNIPNSHHHH”: the “soluble on expression in E. coli” value is reported as “soluble”. With “MSVQPETMPDSSNKTNPTVKEVIAYLADKFPLCFSIEGEAKPLKVGLSQDLAEALADDEKVSKTLLRQVLRSYTMSWRYLACCKANAQRIGLQGENVGIVDEAQAEHAAQSLAVAKEAYAARKAEQRKEQRKDFFKKKAREERNAKTMNKAVKKGSPKKDTFAKATAESLAVLTHKFSKGNK” the entry was “not soluble”; with “MSVSPFFNPKRDSQLGEMMRDMGGMQRRLMPISGTFNPMTDDSEIMNSNDKFAVNLNVSNFKPEELKVNLEGRQLSIQGEHDVENEHGASRKSFSRMILLPEDVDITSVATNLSNDGKLCIEAPKLEGVCGRSVPVKEASMDHHHIE”, “not soluble”; with “MSVSSRGAASPAHRTAPTKWLFTKEEMKKTASIQEGMSREEELASRQMAAAFIQEMIDGLNNVKDPKMKIGHTGLCVAHTHMHRFYYLHSFKKYDYRDVGAACVFLAGKSQECPRKLSHVISVWRERKDRKQLTTETARNEAAQIIVLLESMILQTIAFDLNVHLPHIYVLDIMKKVDKKEHYRPLTSCAYYFATDVIAVTDWSLRYSAASMSIVIIHLMAAYANVRIERLFADFINEDSPWYAKFDETMTNEKLREMEVDFLVTYRNSCQFHHASKFNFREHRPMLENPDVRKLDRTRDARSHSPMVHHVPDSTVNVRPRAYVPRDELTVERLNKERGVEEERRKRERDRMAGKLDSSTSSEKRARIDPLANNFVSSSSSSNGKLAPPPIPPQLNFPPPPIVSSGYNHKNQINRKNHENNHTNSSVSPAFVPSARTFDVAPMLTPPTAPKLQSADNSDMDLEDGELE”, “not soluble”.

Turning to “MSVSYKGTISKTHSVFKPEKGRYYIYGALGCPFTHRAILARSLKKLEPVLGLVLSHWQLDSKGARFLPAPHRPEKYKERFFTATGGIASAKLDESEELGDVNNDSARLFVDGAFDPVENISRLSELYYLNDPKYPGTKFTVPVLWDSKTRKIVNNESGDIIRILNSGVFDEFIQSEETNVIDLVPHDLIDEIDKNIKWVHPKINLGVYKVGLAENGKIYETEVKTLFENLQKMECVLKENYKRLEEQFSGNKQKILAKYFVLGQRLTEADIRLYPSIIRFDVVYVQHFKCNLKTIRDGFPYLHLWLINLYWNYAEFRFTTDFNHIKLFYIRMEVSRNKINQFGIVPLGPKPDISRL”, the “soluble on expression in E. coli” value is “soluble”. In the case of “MSVTAPSARPAPDHHAQFLQLLDTSLTQNAFIKLVLAKHVGPEADLQRLIIKQLTVKEQPCLSFVYRYKTRDITKNFSLDEGIAAIAELLPAAFKNAHLLTLTDEVQLEYSKKGKSSLFKGKPQTQRDAPSAEHNREKNRFLDLSRPFLADLGVTNKQHELIPAMSRKWKQINKFIEVFSHALGSSPIKLDQPVRVADFGSGKGYLTFAIHDYLRNTLKAEGEVTGVELREDMVTLCNAAAQRLEHPGLVFKCGDVRSVAPSQLEVMIALHACDIATDYAIHTGIRSGAAIIMCSPCCHKQIRQQIQSPQLLKPMLQYGLHLGQQAEMVTDSLRALFLEACGYETKVFEFISLEHTNKNKMILAVKRAEPQDPSQLLARIEELKAFYQISEHCLETLLKADGYLG”, the “soluble on expression in E. coli” value is “soluble”. As to “MSVTLHTTSGDIKIELYVDDAPKACENFLALCASDYYNGCIFHRNIKDFMVQTGDPTHSGKGGESIWGGPFEDEFVSALKHDSRGCVSMANNGPDSNRSQFFITYAKQAHLDMKYTLFGKVIDGFDTLEEIETIKVDNKYRPLVQQK”, the “soluble on expression in E. coli” value was “not soluble”.

In the case of “MSVTQIDLDDEALADVMRIAAVHTKKEAVNLAMRDYVERFRRIEALARSRE”, the “soluble on expression in E. coli” value is “soluble”. On to “MSVVAAVDCGTNSIRLLISEQTPTGLREITRQMTIIRLGEGVDATGKIDPVAIERARVALSGYVDTMLAHKVTAVRMVATSATRDASNKDDFFAMTADLLGAVVPGACAEVISGAEEAELSFIGAVADIPDTDRPVCVIDLGGGSTEFVVGKKTGEILGAYSTQMGCVRLTERLMVSDPPTAEEIAQAREYVDTQLTVALDNVPIMQASMVVGCAGTFTTVAALALGLDSYDPQRIHGSVHTADRLREETQRLIGETSQQRAAHSVMHLGRADVIAGGSVVIEQILAMMQRLGVSDSVTISEKDILDGIVARLLEELEHHHHHH”, for which the “soluble on expression in E. coli” value is listed as “soluble”. As for “MSVVAQVSGEEVTRLLAPIDPAVPAGLFDVEDETYQAIDQEMVKLGGLQEASIDWVYIEDASRQYLSQQCKHLRIVAHLSAAWLRSGCWEQWGCTLALLAGMLECYWEAAHPKPGPKGFLGKRKLVALVIDRLAEALPRLDRFTYTPTHAAAAQAALKRLQQQETVQLDTAALGELERLLGKYSELANGVGEAAVPKAPAATEKPAPLADVIATPVSRMSMGNERETRRAVLSMAELINQQDPYDATGYQLRRFGLWAHIQVAPQVRQGNRTELMAVPLDITRFYEEAIASKAVDPALLQRIEKSLTACPFWIRGSFLAATVATQLAMCEVAEAIRCATARFVQRMPSLQQLCFSDGMVFVDDQCLAWLKGTQGPSGQGATPQEFSGLREELVSQLETGGIEPLLLRLQGLQAGVRAPRERCHTTVIAADLLAARGVSWLAQDLCANVARTMQQTTASAWEPEVFERLQQYAASPVLAVQDKDQEPR”, the “soluble on expression in E. coli” value is “not soluble”.

On to “MSVVSPDPAPVPHDPQRRALLRWLVGGGALAGGLGVSAVAQGYRFGVTHEQWNLVGLTRPVRLALLTDLHYGLYIGAGSVRRWVDATLAECPDLILLGGDLVDSHFDAAARPQQTAALLAELGRLRAPLGVYAVWGNHDYGSFGRSISQSPEASRADWAARRDALRAGLAGQGVTVLLNEGRSLRDDLWLGGVDDLRMGEADSVAALRGSGTRATVLLAHNPDVLLRLRSAPGLVLSGHTHGGQVRLPLLGALKVPADPRFTMGWVRGPQGIPAYVSRGLGMSGLPVRNLCEPEITLLTLLPPGALEHHHHHH”, for which the “soluble on expression in E. coli” value is “not soluble”. With “MSWSDIINNNLIGSGNVSKAAILGFDGAVWAKSDNFNISVEEAVAAGKAFTSLDALLGTGLRLEGQKFLVLNADNDRIIGKQGGSGFFIYKTIQAVIISIYEKGLQPEMCSKTTGALADYFRSIKY” the entry was “not soluble”. With “MSYLDTATDLPNQTLFLEYLNIALSNARRHHAQVGVLLCQINNWSDLKRKRGDAVANAFLQEAGQKLKSNLRNGDIVSRWDKDEFIFLVSKVQDTSSLLGIAQRLMKPVLAPVTAGGRPFQPEITYGVALYPVDGEQVNDLIGHIRENLQQLLPQPTNPGSGLEHHHHHH” the entry was “soluble”. As for “MSYNEKSEAIIKEEWLQRLEQFPFKQADMNRLIMNYLVTEGFKEAAEKFQHEADLEPSVELSSLDGRILIREAVQAGRIEEATQLVNQLHPELLGSDRYLFFHLQQLQLIELIRAGKVEEALSFAQSKLSESGEEAMFELERTLALLAFEKPQESPFADLLEQSYRQKIASELNSAILRCEQSEDSTPKMMFLLKLILWAQSKLDSRSISYPKMKNLETAHLEPKLEHHHHHH”, the “soluble on expression in E. coli” value is recorded as “not soluble”.

In the case of “MSYYHHHHHHLESTSLYKKALAYTLPQLPYAYDALEPHIDARTMEIHHTKHHQTYVDNANKALEGTEFADLPVEQLIQQLDRVPADKKGALRNNAGGHANHSMFWQIMGQGQGQNGANQPSGELLDAINSAFGSFDAFKQKFEDAAKTRFGSGWAWLVVKDGKLDVVSTANQDNPLMGEAIAGVSGTPILGVDVWEHAYYLNYQNRRPDYLAAFWNVVNWDEVSKRYAAAK”, the “soluble on expression in E. coli” value was “soluble”. For “MSYYHHHHHHLESTSLYKKSSSTPPRGVTVVNNFDAKRYLGTWYEIARFDHRFERGLEKVTATYSLRDDGGLNVINKGYNPDRGMWQQSEGKAYFTGAPTRAALKVSFFGPFYGGYNVIALDREYRHALVCGPDRDYLWILSRTPTISDEVKQEMLAVATREGFDVSKFIWVQQPGS”, the “soluble on expression in E. coli” value is recorded as “soluble”.

In the case of “MTAKPLPIFLLPISAIRKAMEQMSFAELLIISILSKNAKDFVTLLTKPLKNMIISVDCWLSLKLVTASSELYLLYFKRKQRVRIEKSPYDKRYKKLYLPGFTEKQWIGHIVRVFSHNNGIVLSLKPLFSFRRGKIKETVELFKGLNVRKLVNHDSRIENRQLLKLFPTPNYLRLSNDYICESILVQNFETLELLEKKLSLNDILTTNCTNLEIHYQSLSDRNLNLFMKHWIRGSNPNLQSICVNFSREMRSFGAEVFKGIDHRKTIPQENFYWGKH”, the “soluble on expression in E. coli” value is on record as “not soluble”.

Turning to “MTALETQLTEIVEKEQGQKIIPFLQKLTQEERESLIPCLSRLEEYYNKFVQLEERTYGTRATSGQHHIIDLAALVIFPLKEFRKHEWGINTAHLNEIAAWHIPTWLDSYFVEGEGKEFGGFYNMDYEILMDWIERGILTISPSPQTIAGYLVNYIHTTPVLEKRDITINEHIWYLFEYDCGQNWHANPAKGYPYYTFQHFTENGKLDRMRVLKESLLAINRNFNKNLCSWFAGMFTALSPSVEEQLTLQPEMLAALSSPHSRPINIILGLLKNLCSHPRFLTDDFLDQTTVLFASDVKAVHQNTLGVLSKLAKEKKEYRDTICCAAAQGLMSRDESTQNKIVKLIQTFGETESPTLKEALSAYAETMLTSTKKELAAYLKDNVSDALSTDKVLLTTLDEQASVASFDYEPMPPILREDNRIQEITSIEDLIFLASQILDSNELYHFDLFLNALVEWNEQLEAKHITQWTPVLQRAYKLLINGGSSRNGILDSMMATFLIDYAKLLIKRFPVEAKELSTLHEKMVQKDELQKGQWRYRNLQRITIRQKSNKRTEFPIHKQLLYRTLDLLESNENRLPMLSTPTHMPAFIDPIVLIKRLGQYQQANAEPDDIDMQIALSRMALNNYPSQDFPTVLQELKGEYQSLFSFLIGAKDAVPQAPFAHPSWWMTAGLIKSPETVYTEFKDFSYSKSSREFLTGNFSWWTFQTPHSYTDYHNKVVNWTSSTLSFNVPEGENIHIVNKGKYDERVSYHSYDPHPLLVEMYSQIERYDDIQNDLPRLVWLAPNTPEPLFVWCIRCAIYDPMLNEVREVGITQATIEALHQLRHEWHETSYLLEASCMLVADKTSRSYAAGIWTDRVNTGCIDSARIGRILGSHQRTGWGPLKRLTDLIQQQMINVSPLHNRELELLLTSLIAELPEQPVKELKKLLEIYSELLSVNNSRVTDERILQLLEIWKNTANLKKVIVSINR”, the “soluble on expression in E. coli” value is reported as “not soluble”. With “MTAPRDVRVRTLSLLLPEPGRKGRLAAISAAVCHRRDMATYRYLDKDRNVLEEQDFGTVQDAEEHRLSVLGAEIIEEVEDSGTPES” the entry was “not soluble”.
